Assay results published in article PMC6139572, “Structural and functional effects of myosin-binding protein-C phosphorylation in heart muscle are not mimicked by serine-to-aspartate substitutions” (The Journal of Biological Chemistry, 2018).

What was measured:
Details in all cases: both partners purified
[1] = biological target: T1, myosin S2Δ, the first 126 amino acids of myosin sub-fragment 2 (rat heart) (rat, Alexa 647 (labelled with Alexa 647–NHS, efficiency of ~80%)); assay: MST; as a2 (pH 7, 50 mmol/liter KCl); 30 °C
T1 construct: cardiac myosin heavy chain cloned from a rat heart cDNA library; the first 126 amino acids of myosin S2; also called Alexa 647–myosin S2Δ; source: E. coli BL21(DE3)-RIPL, purified (HisTrapFF, TEV, Mono Q); not shown: His6, N-terminal, cleaved

[2] = biological target: isolated native thin filaments (UniProt P68032 1-377); assay: co-sedimentation; high-velocity co-sedimentation of C1mC2 constructs with isolated native thin filaments; performed as described in ref. 15
[3] = biological target: T1, myosin S2Δ, the first 126 amino acids …; assay: MST; isolated m-motif titrated against 100 nmol/liter Alexa 647–myosin S2Δ; MST buffer adjusted to pH 6.2, enhanced gradient standard capillaries; 50 mmol/liter KCl; 30 °C

B1: C1–C2, construct containing Ig domains C1 and C2 of rat cardiac myosin-binding protein-C connected by a flexible linker, with the m-motif deleted (domain or fragment)
chain: PIGLFLMRPQDGEVTVGGSIVFSARVAGASLLKPPVVKWFKGKWVDLSSKVGQHLQLHDSYDRASKVYLFELHITDAQATSAGGYRCEVSTKDKFDSCNFNLTKKSTAFQKKLEPAYQVNKGHKIRLTVELADPDAEVKWLKNGQEIQMSGRYIFESIGAKRTLTISQCSLADDAAYQCVVGGEKCSTELFVKEP
With B1 the Kd [1] was 477 µM.

B2: C1mC2 of rat cardiac myosin-binding protein-C with three phosphorylatable serines mutated to aspartate (domain or fragment)
chain: PIGLFLMRPQDGEVTVGGSIVFSARVAGASLLKPPVVKWFKGKWVDLSSKVGQHLQLHDSYDRASKVYLFELHITDAQATSAGGYRCEVSTKDKFDSCNFNLTVHEAIGSGDLDLRSAFRRTDLAGTGRRTDDSHEDAGTLDFSSLLKKSDFRRDSKLEAPAEEDVWEILRQAPPSEYERIAFQHGVTDLRGMLKRLKGMKHDEKKSTAFQKKLEPAYQVNKGHKIRLTVELADPDAEVKWLKNGQEIQMSGRYIFESIGAKRTLTISQCSLADDAAYQCVVGGEKCSTELFVKEP
B2 showed a Kd [2] of 16 µM.

B3: isolated m-motif of rat cardiac myosin-binding protein-C (domain or fragment)
chain: VHEAIGSGDLDLRSAFRRTSLAGTGRRTSDSHEDAGTLDFSSLLKKSSFRRDSKLEAPAEEDVWEILRQAPPSEYERIAFQHGVTDLRGMLKRLKGMKHDE
B3 gave a Kd [3] of 41.1 µM.
